Earlier results, collected in US7214519B2, “Screening method for identifying heme independent modulators of soluble guanylyl cyclase (sGC) activity using αβCys105 mutant sGC” (Board of Regents of the University of Texas System, priority 2003, dated 2007).
Where two headings read alike, the source gives them in different places.

Target: T1, αβ^Phe105 sGC (Bos taurus, UniProt P16068+P19687, H105F)
T1 sequence (P16068 1-619 H105F): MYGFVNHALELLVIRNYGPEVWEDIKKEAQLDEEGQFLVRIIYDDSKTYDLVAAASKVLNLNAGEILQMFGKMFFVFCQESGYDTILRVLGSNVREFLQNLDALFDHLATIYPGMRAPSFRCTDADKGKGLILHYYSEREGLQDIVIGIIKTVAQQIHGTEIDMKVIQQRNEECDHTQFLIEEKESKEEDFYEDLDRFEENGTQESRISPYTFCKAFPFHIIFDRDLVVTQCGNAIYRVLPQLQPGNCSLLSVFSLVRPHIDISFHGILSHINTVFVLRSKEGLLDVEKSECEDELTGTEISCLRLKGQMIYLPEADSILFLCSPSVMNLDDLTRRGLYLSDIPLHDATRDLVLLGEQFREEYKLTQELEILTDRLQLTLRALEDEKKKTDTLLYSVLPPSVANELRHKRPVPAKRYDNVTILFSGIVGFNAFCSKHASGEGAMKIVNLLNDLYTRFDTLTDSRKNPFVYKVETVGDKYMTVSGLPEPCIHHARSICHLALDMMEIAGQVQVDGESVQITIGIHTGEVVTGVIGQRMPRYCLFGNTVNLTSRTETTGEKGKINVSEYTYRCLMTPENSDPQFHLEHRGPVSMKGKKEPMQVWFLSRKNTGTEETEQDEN
T1 sequence (P19687 1-691): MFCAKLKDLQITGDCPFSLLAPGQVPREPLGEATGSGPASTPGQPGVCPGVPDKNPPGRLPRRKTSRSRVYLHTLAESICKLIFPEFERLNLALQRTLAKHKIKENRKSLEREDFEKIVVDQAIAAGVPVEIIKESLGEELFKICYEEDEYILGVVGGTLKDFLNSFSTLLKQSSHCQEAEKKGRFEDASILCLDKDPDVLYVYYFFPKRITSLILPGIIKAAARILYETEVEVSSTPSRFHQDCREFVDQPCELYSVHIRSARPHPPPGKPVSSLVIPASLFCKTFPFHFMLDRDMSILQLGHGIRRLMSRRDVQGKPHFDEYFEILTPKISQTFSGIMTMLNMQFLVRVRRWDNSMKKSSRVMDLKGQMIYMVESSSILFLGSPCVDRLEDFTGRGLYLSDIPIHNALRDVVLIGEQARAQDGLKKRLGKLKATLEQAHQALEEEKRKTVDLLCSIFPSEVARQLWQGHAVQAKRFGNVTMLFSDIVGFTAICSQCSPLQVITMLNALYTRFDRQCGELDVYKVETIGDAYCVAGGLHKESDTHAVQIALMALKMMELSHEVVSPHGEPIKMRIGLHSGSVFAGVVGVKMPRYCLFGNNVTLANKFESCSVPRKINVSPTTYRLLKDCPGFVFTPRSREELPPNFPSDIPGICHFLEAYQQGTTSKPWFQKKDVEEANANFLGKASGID
Details: cited from earlier work; for Specific activity: with DTT

B1: αβ^Phe105: bovine sGC with βHis105→Phe substitution, from the literature (40) (protein, UniProt P19687 1-691; P16068 1-619, looked up, variant H105F)
Guanylate cyclase soluble … 1: MFCAKLKDLQITGDCPFSLLAPGQVPREPLGEATGSGPASTPGQPGVCPGVPDKNPPGRLPRRKTSRSRVYLHTLAESICKLIFPEFERLNLALQRTLAKHKIKENRKSLEREDFEKIVVDQAIAAGVPVEIIKESLGEELFKICYEEDEYILGVVGGTLKDFLNSFSTLLKQSSHCQEAEKKGRFEDASILCLDKDPDVLYVYYFFPKRITSLILPGIIKAAARILYETEVEVSSTPSRFHQDCREFVDQPCELYSVHIRSARPHPPPGKPVSSLVIPASLFCKTFPFHFMLDRDMSILQLGHGIRRLMSRRDVQGKPHFDEYFEILTPKISQTFSGIMTMLNMQFLVRVRRWDNSMKKSSRVMDLKGQMIYMVESSSILFLGSPCVDRLEDFTGRGLYLSDIPIHNALRDVVLIGEQARAQDGLKKRLGKLKATLEQAHQALEEEKRKTVDLLCSIFPSEVARQLWQGHAVQAKRFGNVTMLFSDIVGFTAICSQCSPLQVITMLNALYTRFDRQCGELDVYKVETIGDAYCVAGGLHKESDTHAVQIALMALKMMELSHEVVSPHGEPIKMRIGLHSGSVFAGVVGVKMPRYCLFGNNVTLANKFESCSVPRKINVSPTTYRLLKDCPGFVFTPRSREELPPNFPSDIPGICHFLEAYQQGTTSKPWFQKKDVEEANANFLGKASGID
Guanylate cyclase soluble … 2: MYGFVNHALELLVIRNYGPEVWEDIKKEAQLDEEGQFLVRIIYDDSKTYDLVAAASKVLNLNAGEILQMFGKMFFVFCQESGYDTILRVLGSNVREFLQNLDALFDHLATIYPGMRAPSFRCTDADKGKGLILHYYSEREGLQDIVIGIIKTVAQQIHGTEIDMKVIQQRNEECDHTQFLIEEKESKEEDFYEDLDRFEENGTQESRISPYTFCKAFPFHIIFDRDLVVTQCGNAIYRVLPQLQPGNCSLLSVFSLVRPHIDISFHGILSHINTVFVLRSKEGLLDVEKSECEDELTGTEISCLRLKGQMIYLPEADSILFLCSPSVMNLDDLTRRGLYLSDIPLHDATRDLVLLGEQFREEYKLTQELEILTDRLQLTLRALEDEKKKTDTLLYSVLPPSVANELRHKRPVPAKRYDNVTILFSGIVGFNAFCSKHASGEGAMKIVNLLNDLYTRFDTLTDSRKNPFVYKVETVGDKYMTVSGLPEPCIHHARSICHLALDMMEIAGQVQVDGESVQITIGIHTGEVVTGVIGQRMPRYCLFGNTVNLTSRTETTGEKGKINVSEYTYRCLMTPENSDPQFHLEHRGPVSMKGKKEPMQVWFLSRKNTGTEETEQDEN
modifications: mutation in beta subunit
- Specific activity (+NO): 0.11 ± 0.03 µmol/min/mg
- Specific activity (Basal): 0.04 ± 0.03 µmol/min/mg
- basal activity: about 40 nmol/min/mg
